According to paper PMC10183829, “Shuffled ATG8 interacting motifs form an ancestral bridge between UFMylation and autophagy” (The EMBO Journal, 2023):

Assays:
[1] = tested on: GST-HsUFM1 / mCh-HsC53 interaction; test: On-bead competition of the HsUFM1-HsC53 interaction; type: binding, Homo sapiens; settings: 1 μM HsC53; cAIM peptide 0-100 μM; UBA5 LIR peptide or GABARAP 100 μM
Experimental: (§1) Glutathione‐Sepharose 4B bead slurry (Cytiva, average diameter 90 μm) was washed and diluted 10 times in HEPES buffer (25 mM HEPES pH 7.5, 150 mM NaCl, 1 mM DTT). The beads were then incubated for 30 min at 4°C (16 rpm horizontal rotation) with GST‐tagged bait proteins (2 μM of GST, GST‐FIP200 CD, GST‐ATG8A, GST‐GABARAP, GST‐AtUFM1, and GST‐HsUFM1). The beads were washed five times in 10 times the bead volume of HEPES buffer. The buffer was removed, and the beads were resuspended 1:20 in HEPES buffer. 10 μl of diluted beads was mixed with 20 μl of mCherry‐tagged binding partner at a concentration of 1.5 μM (0.5 μl bead slurry and 1 μM binding partner final concentrations) with or without competitor, as stated in the relative experiment. […]
(§2) From images acquired from a Zeiss LSM700 confocal microscope, the quantification of fluorescence was performed in ImageJ (Schindelin et al, [2012]) by drawing a line across each bead and taking the maximum gray value along the line. The maximum gray value for any given pixel represents the fluorescence intensity.
(§3) For images acquired from a Zeiss LSM800 confocal microscope, we used a custom Fiji Macro. […] In the end, the mean fluorescent intensities were exported out and used for quantification.
(§4) For each method, the fluorescence intensity was normalized against the mean of the control condition.

[2] = tested on: HsUFM1; test: Isothermal titration calorimetry, HsUFM1 titrated with HsC53wt; type: binding, Homo sapiens; settings: 40 μM HsUFM1 in cell, 300 or 550 μM HsC53wt in syringe
Experimental: (§5) All experiments were carried out at 25°C in 50 mM sodium phosphate buffer pH 7.0, 100 mM NaCl, using the PEAQ‐ITC Automated (Malvern Panalytical Ltd). For protein–protein interactions, the calorimetric cell was filled with either GABARAP or HsUFM1 and titrated with either HsC53 wt, HsC53 sAIM, HsC53 cAIM, or HsUBA5 LIR. A single injection of 0.4 μl of HsC53 or AtC53 IDRs (not taken into account) was followed by 18 injections of 2 μl each. Injections were made at 150‐s intervals with a duration of 4 s and a stirring speed of 750 rpm. The reference power was set to 10 μcal/s; the feedback mode was set to high. The raw titration data were integrated with NITPIC (Keller et al, [2012]), globally fitted with SEDPHAT (Zhao et al, [2015]), and plotted with GUSSI (Brautigam, [2015]).

[3] = tested on: HsFIP200 Claw domain (CD); test: Microscopy-based on-bead protein-protein interaction assay, GST-FIP200 CD beads; type: binding, Homo sapiens; settings: 1 μM HsC53 variant, 2 independent replicates containing 2 technical replicates
Experimental: as §1, §2, §3, §4

[4] = tested on: GST-GABARAP; test: Microscopy-based on-bead protein-protein interaction assay, GST-GABARAP beads; type: binding, human; settings: 1 μM mCherry-tagged C53 (HsC53 variants per Appendix Fig S10B); normalized fluorescence; mean average; 3 replicates
Experimental: as §1, §2, §3, §4

[5] = target: GABARAP; test: Isothermal titration calorimetry, GABARAP titrated with HsC53 variants; type: binding, human; settings: ITC, 25°C, 50 mM sodium phosphate pH 7.0, 100 mM NaCl; GABARAP 40 or 70 μM in cell; global analysis of 5 titrations, hetero-association model A + B; read-out: KD, best-fit value (ITC, GABARAP)
Experimental: as §5

[6] = tested on: GST-ATG8A; test: Microscopy-based on-bead protein-protein interaction assay, GST-ATG8A beads; type: binding, Arabidopsis thaliana; settings: 1 μM mCherry-tagged C53 (AtC53 variants per Appendix Fig S10A); normalized fluorescence; mean average; 3 replicates
Experimental: as §1, §2, §3, §4

B1: GABARAP: human ATG8 isoform GABARAP, used at 100 µM as competitor (protein)
chain: MKFVYKEEHPFEKRRSEGEKIRKKYPDRVPVIVEKAPKARIGDLDKKKYLVPSDLTVGQFYFLIRKRIHLRAEDALFFFVNNVIPPTSATMGQLYQEHHEEDFFLYIAYSDESVYGL
modifications: left off: GST, N-terminal, kept
**Q.** With B1 as the molecule, how does the “Competition of the HsC53-HsUFM1 interaction (in words)” value [1] read?
**A.** able to disrupt

B2: HsC53^wt: recombinant Homo sapiens C53 (CDK5RAP3), wild type (protein)
chain: MEDHQHVPIDIQTSKLLDWLVDRRHCSLKWQSLVLTIREKINAAIQDMPESEEIAQLLSGSYIHYFHCLRILDLLKGTEASTKNIFGRYSSQRMKDWQEIIALYEKDNTYLVELSSLLVRNVNYEIPSLKKQIAKCQQLQQEYSRKEEECQAGAAEMREQFYHSCKQYGITGENVRGELLALVKDLPSQLAEIGAAAQQSLGEAIDVYQASVGFVCESPTEQVLPMLRFVQKRGNSTVYEWRTGTEPSVVERPHLEELPEQVAEDAIDWGDFGVEAVSEGTDSGISAEAAGIDWGIFPESDSKDPGGDGIDWGDDAVALQITVLEAGTQAPEGVARGPDALTLLEYTETRNQFLDELMELEIFLAQRAVELSEEADVLSVSQFQLAPAILQGQTKEKMVTMVSVLEDLIGKLTSLQLQHLFMILASPRYVDRVTEFLQQKLKQSQLLALKKELMVQKQQEALEEQAALEPKLDLLLEKTKELQKLIEADISKRYSGRPVNLMGTSL
modifications: left off: His6, N-terminal, state not stated
notes: recombinant Homo sapiens C53 (CDK5RAP3), wild type
**Q.** How did the “Binding to UFM1 by ITC (in words)” value [2] turn out when B2 was run?
**A.** did not detect appreciable binding

B3: HsC53^cAIM: HsC53^(IDWG267WDGI, IDWG292WDGI, IDWG310WDGI) (protein)
chain: MEDHQHVPIDIQTSKLLDWLVDRRHCSLKWQSLVLTIREKINAAIQDMPESEEIAQLLSGSYIHYFHCLRILDLLKGTEASTKNIFGRYSSQRMKDWQEIIALYEKDNTYLVELSSLLVRNVNYEIPSLKKQIAKCQQLQQEYSRKEEECQAGAAEMREQFYHSCKQYGITGENVRGELLALVKDLPSQLAEIGAAAQQSLGEAIDVYQASVGFVCESPTEQVLPMLRFVQKRGNSTVYEWRTGTEPSVVERPHLEELPEQVAEDAWDGIDFGVEAVSEGTDSGISAEAAGWDGIIFPESDSKDPGGDGWDGIDDAVALQITVLEAGTQAPEGVARGPDALTLLEYTETRNQFLDELMELEIFLAQRAVELSEEADVLSVSQFQLAPAILQGQTKEKMVTMVSVLEDLIGKLTSLQLQHLFMILASPRYVDRVTEFLQQKLKQSQLLALKKELMVQKQQEALEEQAALEPKLDLLLEKTKELQKLIEADISKRYSGRPVNLMGTSL
**Q.** B3 was tested. Which “FIP200 interaction compared with C53 wild type (in words)” value [3] did it give?
**A.** stronger interaction

B4: C53^cAIM: text label without species: HsC53^cAIM with GABARAP (ITC, beads), AtC53^cAIM with GST-ATG8 (protein)
chain: MEDHQHVPIDIQTSKLLDWLVDRRHCSLKWQSLVLTIREKINAAIQDMPESEEIAQLLSGSYIHYFHCLRILDLLKGTEASTKNIFGRYSSQRMKDWQEIIALYEKDNTYLVELSSLLVRNVNYEIPSLKKQIAKCQQLQQEYSRKEEECQAGAAEMREQFYHSCKQYGITGENVRGELLALVKDLPSQLAEIGAAAQQSLGEAIDVYQASVGFVCESPTEQVLPMLRFVQKRGNSTVYEWRTGTEPSVVERPHLEELPEQVAEDAWDGIDFGVEAVSEGTDSGISAEAAGWDGIIFPESDSKDPGGDGWDGIDDAVALQITVLEAGTQAPEGVARGPDALTLLEYTETRNQFLDELMELEIFLAQRAVELSEEADVLSVSQFQLAPAILQGQTKEKMVTMVSVLEDLIGKLTSLQLQHLFMILASPRYVDRVTEFLQQKLKQSQLLALKKELMVQKQQEALEEQAALEPKLDLLLEKTKELQKLIEADISKRYSGRPVNLMGTSL
**Q.** Which “Recruited more efficiently to GST-GABARAP than the respective C53 wild-type protein” value [4] does the source give for B4 here?
**A.** 35%

**Q.** And the Kd [5]?
**A.** 11.2 µM

**Q.** And the “Recruited more efficiently to GST-ATG8 than the respective C53 wild-type protein” value [6]?
**A.** 22%
